Reference: the DeepSol protein solubility set

experiment: soluble on expression in E. coli; label from the status in PepcDB or PDB records

Sequence | soluble on expression in E. coli
MTPHATPAPRVSAIVSLYNAERFVRGCLDDLLGQTLADSLEIIVIDACSPQGEGAIVQDYMRDHPNIVYVRTDEREGVYASWNRGVRLARAPYVTNANADDRHREDALERLAAALDEAPEAGFAYGDCRVGQTENERYADNAGQRVMRFPDFFAPATLLYCQLGPQPLWRRSVHDVVGFFDESYRACADWDFDIRLAAAFRGIHVPDALGLYLEHEAAITFRDDTMTRENDRVQRQWQHPEAVEERYRAAGVPCHTAEERALVHFDMALRALRFYPPWCYGAPAHNPGFARRCLRHALRLAPALAPAKELLALPDAVLTALDDLPSPLGLPSQATLAGVAAPLEHHHHHH | not soluble
MTPTIELICGHRSIRHFTDEPISEAQREAIINSARATSSSSFLQCSSIIRITDKALREELVTLTGGQKHVAQAAEFWVFCADFNRHLQICPDAQLGLAEQLLLGVVDTAMMAQNALIAAESLGLGGVYIGGLRNNIEAVTKLLKLPQHVLPLFGLCLGWPADNPDLKPRLPASILVHENSYQPLDKGALAQYDEQLAEYYLTRGSNNRRDTWSDHIRRTIIKESRPFILDYLHKQGWATR | soluble
MTQATTRICILGGGFGGLYTALRLSQLPWESTPKPEIILVDQSDRFLFSPFLYELLTGELQAWEIAPPYQELLQGTGVRFHQAVVSEIDTDKQQVQLQNGLEIAYDRLVLALGGETPLDLVPGATTYAHHFRSITEVYRLEESLRVLEASETEKIRIAIVGAGYSGVELACKLADRIGEKGRFRLIEISDQILRTSPEFNRQAAKKALETRGVFIDLETKVVSIGENTISLEYKTQVDEIPVDLVIWTVGTRVAPLVKTLPLKQNQRGQITTTSKLQVLEHPEIFALGDLADCLDTEGKQVPATAQVAFQQADYTAWNIWASLTNRPLLPFRYQQLGEMMALGVDNATLTGLGIKLDGSLAYIARRLAYLYRLPTLEHQLKVGFSWLVSPIIKTLSQ | not soluble
MTQHFPTRQLRFFLTAPTPCPYLPGREERKVFAHLPLSDGPIVNDSLTQVGFRRSQNIAYRPACETCRACQSARAPATEYILSRSERKILGRNDDLERHLVEAEATLEQFELLRRYLLTRHADGGMAEMTWPDYVAMVEDTAVRTHLIEYRRKSLDRGPGDLVACVLVDVLADGLSLVYSFYEPDQPRRSLGSFIILDHIVQAQQNALPYVYLGYWVPGSEKMAYKARFSPLEILKPGGWSLMSARERGARPPRGPGALKDACDLPLSDAQPADIEDLDLEHHHHHH | not soluble
MTQLNFEENLLTKVAWYYYKDQLTQQEIASLLHISRNKVVRLLDKARSEGIVTFHVKGTGLHCLSIERDLMKKFHLKDAFIIPTPVNNYHASLGKAAAQYLETHLQQGDLLGIGWGETISKMLENIHFESSINLSIVTLTGGVNHYLPRKQNYLHYMQGELHIIPTPFLASTTEMAQSILSEPSVKDMLQVASLAHTAVVGIGGLSQDATIVKEEKLTLREMTYIRSQNGAGDILGQFYNTNGDLLELSHHNRLIGTPLSILRNMKHVVGVAGGTEKIDAICGALKGKFIHSLITDEETALSLLRKDGDC | not soluble
MTQLNQRRRGNRLENAIYDTTYTLLSQYGLDQVTFSRVATAAATSRSVLYRYWDSTFDLIFHTIIHQIQKTPIALTTTPLDTGSLRTDLILLAQRFIQQTSTGPFRYFRLLFATALNAQNQRDLTQLVTQIDHANLTLIEPLLTNAQNHGELQIWPNQAAQLVLFQQLRYCDIINQPMNTDQQLTNLIDQVVLPALRASGVANRHFHH | not soluble
MTQSRRTLTERRADELRLAIAEVAFDMFVADGNTSATVERISQAVGIAPRTFYRHFEVKEDVVRPIFTKSSDVIVDALASTGEDVALLEGLVAAFLSQMDGTALTPEARTFLGLMLTTPAYKIRWLDVDPPLRQAVADLLDRRLGLSADPYIHLLAADLIVHAARDAFQHWVSSQEREPTEALLRRSFTLILKGLEHVIPRT | not soluble
MTRHGKNCTAGAVYTYHEKRKDTAASGYGTQSVRLGKDAIKDFDCCSLSLQPCRDPVLTEDGYLYEKEAILQYILHQKTEIAKKMKAYEKQKQALKSEGQLESKSEERERAEKFKQRENNIVSKPINPFTSGKSKDEGNQNGSTSSSSTDTSSGESSSSSALPSFWIPSLTPEAKPTLLKKPSKTVSCPMSGRPLKMSDLITVRFTPLDPSLDRVALLTRQDRYVCAVTKDTLGNSVPCAVLRPSGVVVTMECVEKLIKKDMVDPITGDKLKEKDIIPIQRGGTGFAGSGVDLKAKEARPVMQA | not soluble
MTRVIIDGDACPVVDSVIELTTGTGIFVTILRSFSHYSNKVLPNHVETIYIDDGPDAVDYKIVKLATPEDIVITQDYGLASLLLSKVKIVMHHKGHLYRSSNIDMLLQQRYNNAQIRKQGGRHKGPPPFSKEDKKQFERAFKSVIKQLLEHHHHHH | not soluble
MTRYALLVRGINVGGKNKVVMAELRQELTNLGLEKVESYINSGNIFFTSIDSKAQLVEKLETFFAVHYPFIQSFSLLSLEDFEAELENLPAWWSRDLARKDFLFYTEGLDVDQVIATVESLELKDEVLYFGKLGIF | not soluble
MTSASAPSFNPGKGPGSAVGIALLGFGTVGTEVMRLMTEYGDELAHRIGGPLEVRGIAVSDISKPREGVAPELLTEDAFALIEREDVDIVVEVIGGIEYPREVVLAALKAGKSVVTANKALVAAHSAELADAAEAANVDLYFEAAVAGAIPVVGPLRRSLAGDQIQSVMGIVNGTTNFILDAMDSTGADYADSLAEATRLGYAEADPTADVEGHDAASKAAILASIAFHTRVTADDVYCEGISNISAADIEAAQQAGHTIKLLAICEKFTNKEGKSAISARVHPTLLPVSHPLASVNKSFNAIFVEAEAAGRLMFYGNGAGGAPTASAVLGDVVGAARNKVHGGRAPGESTYANLPIADFGETTTRYHLDMDVEDRVGVLAELASLFSEQGISLRTIRQEERDDDARLIVVTHSALESDLSRTVELLKAKPVVKAINSVIRLERD | not soluble
MTSDTFPQLPLSYWIESTQFPTFPRLSENIKTKVAIIGAGITGITTAYLLAKEGIDVVLIDSGRILNGTTGHTTAKVTAQHDLIYDELINHFGVEKARLYYESNNQALQFINKTVQTYKIDCNFSNEDSYLYTTTDNGLRNLSKEYEAYQKLNIPCDYVQSLSIPIPVQSALVMKNQAQFHPLLYLKTLLEKFVEMGGKVYEQTTAMDVEKGDYSQIITKEGHHITCEYVVSCSHFPFYDANSFFFTRMYAERSYALAIKAKTEYPGGMYLSIDDPKRSLRYITNNGEKLILIGGESHKTGQGINTMLHYEALYSFAEATFGIDEVSYRWSAQDLITLDKLPYIGHINERNPNIFVATGYRKWGMTTGTAAAHLLKDSILKVHSPYKELYAPSRFHANPDIKTFLSQNIDVAKHLIAGKIETALRKPEDLEVGEGSVVHVNGKRAGAYKDKEGKLHIVDTTCTHLGCEVEWNNGDCTWDCPCHGSRFSIEGDVLEGPADQPLKRVDNELEHHHHHH | soluble
MTSLTNAVFKRYLAVTPSAHQALKTRIKKKSSSFDKFFPQQSNSRKKQWETLNEDKASWFKRKYAHVHAREQDRAADPYGKKKAHVEKLKEIKNQAKLNQKSHKSKFQNKDIALKLMNDNPIFEYVYGTNSVYAALLNPSRNCHSRLLYHGTIPSKFLQIVDELKVTTELVDKHRLNLLTNYGVHNNIALETKPLQPVEIAYLGDMDTSSAALSIHELGFNNENIPHELPYGTKTDAKKFPLGLYLDEITDPHNIGAIIRSAYFLGVDFIVMSRRNCSPLTPVVSKTSSGALELLPIFYVDKPLEFFTKSQEMGGWTFITSHLANATSEKYTVGKTISMHDLNGLCNELPVVLVVGNESQGVRTNLKMRSDFFVEIPFGGIEKGNRAPEPIVDSLNVSVATALLIDNILTCK | soluble
MTSPDEHSPEKKDSENEVVPAGPKQKAKCLEKETKSPPKPSDLSKAERKEKNNKTARRDVKSSRGNVKTMKPSVVKVEERSSRSKKSIREGKLKNFSLPKDEPEITALQLDAELTKSARLMEEYKIALEQIITTLVSMMRRGNGTVDMENIVSDKGQTAAEKLNKEVQLTQNYWKTDTKLQPAMNDAIAKNTVVLAAAERNLQTQGPQHLKRVKKFLYGQYPKYVDMKRDLLKIVKQQKPEAQSVRDESAQAISKFIKEKYVNAKIYASRRNSKCFRRVELFPSYIRFYLASNR | soluble
MTSRPSSDQTWQPIDGRVALIAPASAIATDVLEATLRQLEVHGVDYHLGRHVEARYRYLAGTVEQRLEDLHNAFDMPDITAVWCLRGGYGCGQLLPGLDWGRLQAASPRPLIGFSDISVLLSAFHRHGLPAIHGPVATGLGLSPLSAPREQQERLASLASVSRLLAGIDHELPVQHLGGHKQRVEGALIGGNLTALACMAGTLGGLHAPAGSILVLEDVGEPYYRLERSLWQLLESIDARQLGAICLGSFTDCPRKEVAHSLERIFGEYAAAIEVPLYHHLPSGHGAQNRAWPYGKTAVLEGNRLRW | soluble
MTSSLSLHSSFVPSFADLSDRGLISKNSPTSVSISKVPTWEKKQISNRNSFKLNCVMEKSVDGQTHSTVNNTTDSLNTMNIKEEASVSTLLVNLDNKFDPFDAMSTPLYQTATFKQPSAIENGPYDYTRSGNPTRDALESLLAKLDKADRAFCFTSGMAALSAVTHLIKNGEEIVAGDDVYGGSDRLLSQVVPRSGVVVKRVNTTKLDEVAAAIGPQTKLVWLESPTNPRQQISDIRKISEMAHAQGALVLVDNSIMSPVLSRPLELGADIVMHSATKFIAGHSDVMAGVLAVKGEKLAKEVYFLQNSEGSGLAPFDCWLCLRGIKTMALRIEKQQENARKIAMYLSSHPRVKKVYYAGLPDHPGHHLHFSQAKGAGSVFSFITGSVALSKHLVETTKYFSIAVSFGSVKSLISMPCFMSHASIPAEVREARGLTEDLVRISAGIEDVDDLISDLDIAFKTFPL | soluble
MTSTPIERAVYIVSDSTGITAETFSHSVLSQFDEVNFKPVRLPFIDTLDKAREVVARINRNALEAGVPPIVFSTLVNPEILALVRQSNGVFLDLFGTFVSHIEQALGLKSSHSIGRSHMAANSEKYRNRIDAINFSLAHDDGQFVNQLDQADVILLGVSRCGKTPTSLYLAMQYAVKAANFPLTPDDFERGALPKTIAPYRGKLFGLSIQPERLAEVRNERRPNSHYARLEQCRYEVAEAERMMRREGISWLSTTTKSIEEIATTVLQEVGLERVAAALEHHHHHH | soluble
MTSVGPGQPQKELIRAQNGTYEVTKPLATGTFGSIYKVKRESDGKFFAVKCEALNMKSSLLRQMSVVLASIHHPSPFFTNIEERGTVPNRFLFIVMPLYGENLYELMMNTNKDRKFSMATGLHLAEQTLAAIRDLHRNGFIHRDIKPSHFCIGREIDGQHHQVYLLDFGLCKRPRFVKKNDEAEEQMRKNAIHYRGVVKYASVHAHQGKNLGYKDDMESWWYMVLEFFLGALPWALLNKESEQDVLHLKRRITAPMVASVWRTTPETTAGFFDLLTIIREPKDVAEFVEYDRIADGIQKLFEKSKSNTQEPPDWDCMTDYKGPGYQQVLMIAPPEVGLKPEMDFGKSDPGAGGESGEQPKKEDVDKKKKKKKKSKKKGKSNNKTTSAEEQKGGKCAPPSRVRDERRETRDETVCEIETRSR | not soluble
MTTDYDFWLFDLDGTLVDIEPAYPRKVMGAVGDRLGVEFTDRERDALWYGFGGTRSRTLAERNVDQQEFWRLFHEEEDPIARAEATYLYDDAEQFLATLDTPVGLVTHCQQYLTEPVLDHLDITDWFETVVCCDDDIGWKPDPKPVELAMREMDVWYNGHHGVLAGDNPSDIGAAWNAGLDGVHVGRRSPTETGRCVRGDRRVASLLDLSSSQGR | not soluble
MTTINPTNYTLLKKQAASLIEDEHHMIAILSNMSALLNDNLDQINWVGFYLLEQNELILGPFQGHPACVHIPIGKGVCGTAVSERRTQIVADVHQFEGHIACDANSKSEIVVPIFKDDKIIGVLDIDAPITDRFDDNDKEHLEAIVKIIEKQLA | not soluble
